B1: 376_B07 (antibody, V domains shown)
VH: EVQLLESGGGLVQPGGSLRLSCAASGFTFDSYSMNWVRQAPGKGLEWVSGINYNSGYTSYADSVKGRFTISRDNSKNTLYLQMNSLRAEDTAVYYCARSATWHDTALDYWGQGTLVTVSS
VL: DIQMTQSPSSLSASVGDRVTITCRASQSILSYLNWYQQKPGKAPKLVIYYVSNRASGVPSRFSGSGSGTDFTLTISSLQPEDFATYYCQQSYDNPLTFGGGTKVEIK
B2: 370_F08 (antibody, V domains shown)
VH: EVQLLESGGGLVQPGGSLRLSCAASGFTFDSYSMNWVRQAPGKGLEWVAGINYNGGYTSYADSVKGRFTISRDNSKNTLYLQMNSLRAEDTAVYYCARSATWHDTHLDYWGQGTLVTVSS
VL: DIQMTQSPSSLSASVGDRVTITCRASQSIISYVNWYQQKPGKAPKLLIYAATSRHSGVPSRFSGSGSGTDFTLTISSLQPEDFATYYCQQSYNLPLTFGGGTKVEIK
B3: 370_A09 (antibody, V domains shown)
VH: EVQLLESGGGLVQPGGSLRLSCAASGFTFSSYSMNWVRQAPGKGLEWVAGINYNGGYTGYADSVKGRFTISRDNSKNTLYLQMNSLRAEDTAVYYCARSATWHDTHLDYWGQGTLVTVSS
VL: DIQMTQSPSSLSASVGDRVTITCRASQSILTYLNWYQQKPGKAPKLVIYAATSRASGVPSRFSGSGSGTDFTLTISSLQPEDFATYYCQQSYDTPLTFGGGTKVEIK
B4: 373_G05 (antibody, V domains shown)
VH: EVQLLESGGGLVQPGGSLRLSCAASGFTFSSYSMNWVRQAPGKGLEWVAGINYNGGYTSYADSVKGRFTISRDNSKNTLYLQMNSLRAEDTAVYYCARSATWHDTHLDYWGQGTLVTVSS
VL: DIQMTQSPSSLSASVGDRVTITCRASQSILSYLNWYQQKPGKAPKLLIYAATSLASGVPSRFSGSGSGTDFTLTISSLQPEDFATYYCQQSYELPLTFGGGTKVEIK
B5: 365_A07 (antibody, V domains shown)
VH: EVQLLESGGGLVQPGGSLRLSCAASGFTFSSYGMNWVRQAPGKGLEWVAGINYNSGYKGYADSVKGRFTISRDNSKNTLYLQMNSLRAEDTAVYYCARSATWHDTHLDYWGQGTLVTVSS
VL: DIQMTQSPSSLSASVGDRVTITCRASQSIVSYLNWYQQKPGKAPKLLIYAATSRASGVPSRFSGSGSGTDFTLTISSLQPEDFATYYCQQSYNLPLTFGGGTKVEIK
B6: 365_D05 (antibody, V domains shown)
VH: EVQLLESGGGLVQPGGSLRLSCAASGFTFDSYSMNWVRQAPGKGLEWVAGINYNGGYTSYADSVKGRFTISRDNSKNTLYLQMNSLRAEDTAVYYCARSATWHDTHLDYWGQGTLVTVSS
VL: DIQMTQSPSSLSASVGDRVTITCRASQSILTYVNWYQQKPGKAPKLLIYAATSRASGVPSRFSGSGSGTDFTLTISSLQPEDFATYYCQQSYNSPLTFGGGTKVEIK
B7: 369_A05 (antibody, V domains shown)
VH: EVQLLESGGGLVQPGGSLRLSCAASGFTFSSYSMNWVRQAPGKGLEWVAGINYNGGYTGYADSVKGRFTISRDNSKNTLYLQMNSLRAEDTAVYYCARSATWHDTHLDYWGQGTLVTVSS
VL: DIQMTQSPSSLSASVGDRVTITCRASQSILTYVNWYQQKPGKAPKLVIYAATSRASGVPSRFSGSGSGTDFTLTISSLQPEDFATYYCQQSYESPLTFGGGTKVEIK
B8: 365_B03 (antibody, V domains shown)
VH: EVQLLESGGGLVQPGGSLRLSCAASGFTFSSYSMNWVRQAPGKGLEWVAGINYNGGYTGYADSVKGRFTISRDNSKNTLYLQMNSLRAEDTAVYYCARSATWHDTHLDYWGQGTLVTVSS
VL: DIQMTQSPSSLSASVGDRVTITCRASQSIVSYLNWYQQKPGKAPKLLIYAATSRASGVPSRFSGSGSGTDFTLTISSLQPEDFATYYCQQSYENPLTFGGGTKVEIK
B9: 373_E04 (antibody, V domains shown)
VH: EVQLLESGGGLVQPGGSLRLSCAASGFTFDSYSMNWVRQAPGKGLEWVAGINYNGGYTSYADSVKGRFTISRDNSKNTLYLQMNSLRAEDTAVYYCARSATWHDTHLDYWGQGTLVTVSS
VL: DIQMTQSPSSLSASVGDRVTITCRASQSILTYVNWYQQKPGKAPKLLIYAATSRASGVPSRFSGSGSGTDFTLTISSLQPEDFATYYCQQSYNSPLTFGGGTKVEIK
B10: 373_E03 (antibody, V domains shown)
VH: EVQLLESGGGLVQPGGSLRLSCAASGFTFDSYGMNWVRQAPGKGLEWVSNINYNGGYTGYADSVKGRFTISRDNSKNTLYLQMNSLRAEDTAVYYCARSATWHDTALDYWGQGTLVTVSS
VL: DIQMTQSPSSLSASVGDRVTITCRASQSILSYVNWYQQKPGKAPKLVIYAATSRASGVPSRFSGSGSGTDFTLTISSLQPEDFATYYCQQSYDLPLTFGGGTKVEIK
B11: 366_B04 (antibody, V domains shown)
VH: EVQLLESGGGLVQPGGSLRLSCAASGFTFDSYSMNWVRQAPGKGLEWVAGINYNGGYKGYADSVKGRFTISRDNSKNTLYLQMNSLRAEDTAVYYCARSATWHDTHLDYWGQGTLVTVSS
VL: DIQMTQSPSSLSASVGDRVTITCRASQSILTYVNWYQQKPGKAPKLVIYAATSRHSGVPSRFSGSGSGTDFTLTISSLQPEDFATYYCQQSYDTPLTFGGGTKVEIK
B12: 373_H10 (antibody, V domains shown)
VH: EVQLLESGGGLVQPGGSLRLSCAASGFTFSSYSMNWVRQAPGKGLEWVAGINYNGGYTGYADSVKGRFTISRDNSKNTLYLQMNSLRAEDTAVYYCARSATWHDTHLDYWGQGTLVTVSS
VL: DIQMTQSPSSLSASVGDRVTITCRASQSILSYVNWYQQKPGKAPKLLIYAATSRASGVPSRFSGSGSGTDFTLTISSLQPEDFATYYCQQSYSLPLTFGGGTKVEIK
B13: 376_B01 (antibody, V domains shown)
VH: EVQLLESGGGLVQPGGSLRLSCAASGFTFDSYSMNWVRQAPGKGLEWVAGINYNGGYTSYADSVKGRFTISRDNSKNTLYLQMNSLRAEDTAVYYCARSATWHDTHLDYWGQGTLVTVSS
VL: DIQMTQSPSSLSASVGDRVTITCRASQSILTYVNWYQQKPGKAPKLVIYAATSRASGVPSRFSGSGSGTDFTLTISSLQPEDFATYYCQQSYNLPLTFGGGTKVEIK
B14: 369_F07 (antibody, V domains shown)
VH: EVQLLESGGGLVQPGGSLRLSCAASGFTFDSYSMNWVRQAPGKGLEWVAGINYNGGYKSYADSVKGRFTISRDNSKNTLYLQMNSLRAEDTAVYYCARSATWHDTHLDYWGQGTLVTVSS
VL: DIQMTQSPSSLSASVGDRVTITCRASQSILSYVNWYQQKPGKAPKLVIYAATSRASGVPSRFSGSGSGTDFTLTISSLQPEDFATYYCQQSYESPLTFGGGTKVEIK
B15: 366_A03 (antibody, V domains shown)
VH: EVQLLESGGGLVQPGGSLRLSCAASGFTFDSYSMNWVRQAPGKGLEWVAGINYNSGYKGYADSVKGRFTISRDNSKNTLYLQMNSLRAEDTAVYYCARSATWHDTHLDYWGQGTLVTVSS
VL: DIQMTQSPSSLSASVGDRVTITCRASQSISSYLNWYQQKPGKAPKLLIYAATSLASGVPSRFSGSGSGTDFTLTISSLQPEDFATYYCQQSYSNPLTFGGGTKVEIK
B16: 372_F07 (antibody, V domains shown)
VH: EVQLLESGGGLVQPGGSLRLSCAASGFTFDDYSMNWVRQAPGKGLEWVAGINYNSGYKGYADSVKGRFTISRDNSKNTLYLQMNSLRAEDTAVYYCARSATWHDTHLDYWGQGTLVTVSS
VL: DIQMTQSPSSLSASVGDRVTITCRASQSILTYLNWYQQKPGKAPKLVIYAATSRASGVPSRFSGSGSGTDFTLTISSLQPEDFATYYCQQSYELPLTFGGGTKVEIK
B17: 370_H03 (antibody, V domains shown)
VH: EVQLLESGGGLVQPGGSLRLSCAASGFTFDSYSMNWVRQAPGKGLEWVAGINYNSGYKGYADSVKGRFTISRDNSKNTLYLQMNSLRAEDTAVYYCARSATWHDTHLDYWGQGTLVTVSS
VL: DIQMTQSPSSLSASVGDRVTITCRASQSILTYLNWYQQKPGKAPKLLIYAATSLASGVPSRFSGSGSGTDFTLTISSLQPEDFATYYCQQSYDTPLTFGGGTKVEIK
B18: 369_E10 (antibody, V domains shown)
VH: EVQLLESGGGLVQPGGSLRLSCAASGFTFSSYSMNWVRQAPGKGLEWVSNINYNGGYKSYADSVKGRFTISRDNSKNTLYLQMNSLRAEDTAVYYCARSATWHDTALDYWGQGTLVTVSS
VL: DIQMTQSPSSLSASVGDRVTITCRASQSILSYVNWYQQKPGKAPKLVIYAATSRASGVPSRFSGSGSGTDFTLTISSLQPEDFATYYCQQSYDLPLTFGGGTKVEIK
B19: 369_G07 (antibody, V domains shown)
VH: EVQLLESGGGLVQPGGSLRLSCAASGFTFSSYSMNWVRQAPGKGLEWVAGINYNGGYTSYADSVKGRFTISRDNSKNTLYLQMNSLRAEDTAVYYCARSATWHDTHLDYWGQGTLVTVSS
VL: DIQMTQSPSSLSASVGDRVTITCRASQSILTYVNWYQQKPGKAPKLVIYAATSRASGVPSRFSGSGSGTDFTLTISSLQPEDFATYYCQQSYDNPLTFGGGTKVEIK
B20: 365_F07 (antibody, V domains shown)
VH: EVQLLESGGGLVQPGGSLRLSCAASGFTFSSYSMNWVRQAPGKGLEWVSNINYNGGYKSYADSVKGRFTISRDNSKNTLYLQMNSLRAEDTAVYYCARSATWHDTALDYWGQGTLVTVSS
VL: DIQMTQSPSSLSASVGDRVTITCRASQSILSYVNWYQQKPGKAPKLVIYAATSRASGVPSRFSGSGSGTDFTLTISSLQPEDFATYYCQQSYDLPLTFGGGTKVEIK
B21: 367_A09 (antibody, V domains shown)
VH: EVQLLESGGGLVQPGGSLRLSCAASGFTFDSYGMNWVRQAPGKGLEWVAGINYNGGYTSYADSVKGRFTISRDNSKNTLYLQMNSLRAEDTAVYYCARSATWHDTHLDYWGQGTLVTVSS
VL: DIQMTQSPSSLSASVGDRVTITCRASQSILSYVNWYQQKPGKAPKLVIYAATSRHSGVPSRFSGSGSGTDFTLTISSLQPEDFATYYCQQSYDTPLTFGGGTKVEIK

The target of the experiment is human Fc (human). Briefly: ELISA; negative control.
The molecule B1 returned an optical density of 0.234 OD.

As for B2, the optical density stood at 0.495 OD.

For B3, the optical density stood at 0.361 OD.

Consider B4, for which the optical density worked out at 0.273 OD.

In turn, B5 registered an optical density of 0.284 OD.

B6 came in with an optical density of 0.357 OD.

For B7, the optical density stood at 0.588 OD.

Consider B8, for which the optical density was determined as 0.444 OD.

Molecule B9 came in with an optical density of 0.251 OD.

On to B10, for which the optical density was found to be 0.194 OD.

Regarding B11, the optical density is 0.331 OD.

For the molecule B12, the optical density came to 0.2 OD.

B13 registered an optical density of 0.308 OD.

Molecule B14 came in with an optical density of 0.335 OD.

For the molecule B15, the optical density was 0.303 OD.

B16 showed an optical density of 0.296 OD.

Turning to B17, the optical density amounted to 0.381 OD.

In turn, B18 displayed an optical density of 0.412 OD.

In turn, B19 showed an optical density of 0.32 OD.

Regarding B20, the optical density came to 0.331 OD.

Turning to B21, the optical density worked out at 0.259 OD.

The values above are taken from patent US20210380703A1.
